Substitutions are numbered along the chain they refer to. Names may count otherwise.
B1: Venus-BimEL (natural protein, mouse, UniProt O54918-1 1-196, looked up)
chain: MAKQPSDVSSECDREGGQLQPAERPPQLRPGAPTSLQTEPQGNPDGEGDRCPHGSPQGPLAPPASPGPFATRSPLFIFVRRSSLLSRSSSGYFSFDTDRSPAPMSCDKSTQTPSPPCQAFNHYLSAMASIRQSQEEPEDLRPEIRIAQELRRIGDEFNETYTRRVFANDYREAEDHPQMVILQLLRFIFRLVWRRH
notes: BimEL, mouse; GGS linker after Venus; also called ^VBimEL; ^vBimEL; source: MCF-7 and BMK-DKO, transiently transfected, in live cells; not shown: Venus, N-terminal, kept
B2: Venus-BimEL-I188E (natural protein, mouse, UniProt O54918-1 1-196, looked up)
chain: B1 chain with I188E
notes: BimEL, mouse; also called ^VBimEL-I188E; ^vBimEL-I188E; source: MCF-7, transiently transfected, in live cells; not shown: Venus, N-terminal, kept
B3: Venus-BimEL-CTS2A (natural protein, mouse, UniProt O54918-1 1-196, looked up)
chain: B1 chain with R186A, R190A
notes: BimEL, mouse; also called ^VBim-CTS2A; ^vBimEL-CTS2A; source: MCF-7, transiently transfected, in live cells; not shown: Venus, N-terminal, kept
B4: Venus-BimEL-V192E (natural protein, mouse, UniProt O54918-1 1-196, looked up)
chain: B1 chain with V192E
notes: BimEL, mouse; also called ^VBimEL-V192E; ^vBimEL-V192E; source: MCF-7, transiently transfected, in live cells; not shown: Venus, N-terminal, kept
B5: Venus-BimEL-I146Y-L185E (natural protein, mouse, UniProt O54918-1 1-196, looked up)
chain: B1 chain with I146Y, L185E
notes: BimEL, mouse; also called ^vBimEL-I146Y-L185E; source: MCF-7, transiently transfected, in live cells; not shown: Venus, N-terminal, kept
B6: Venus-BimEL-L185E (natural protein, mouse, UniProt O54918-1 1-196, looked up)
chain: B1 chain with L185E
notes: BimEL, mouse; also called ^VBimEL-L185E; ^vBimEL-L185E; source: MCF-7, transiently transfected, in live cells; not shown: Venus, N-terminal, kept
B7: Venus-BimEL-I181E (natural protein, mouse, UniProt O54918-1 1-196, looked up)
chain: B1 chain with I181E
notes: BimEL, mouse; also called ^vBimEL-I181E; source: MCF-7, transiently transfected, in live cells; not shown: Venus, N-terminal, kept
B8: Venus-BimEL-I146Y (natural protein, mouse, UniProt O54918-1 1-196, looked up)
chain: B1 chain with I146Y
notes: BimEL, mouse; also called ^vBimEL-I146Y; source: MCF-7, transiently transfected, in live cells; not shown: Venus, N-terminal, kept
B9: BimL-dCTS, Alexa568-labelled (domain or fragment)
chain: MAKQPSDVSSECDREGGQLQPAERPPQLRPGAPTSLQTEPCDRSPAPMSCDKSTQTPSPPCQAFNHYLSAMASIRQSQEEPEDLRPEIRIAQELRRIGDEFNETYTRRVFANDYREAEDHP
modifications: Alexa568 on a single cysteine
B10: BimL single-cysteine mutant 41C, Alexa568-labelled (natural protein)
chain: MAKQPSDVSSECDREGGQLQPAERPPQLRPGAPTSLQTEPCDRSPAPMSCDKSTQTPSPPCQAFNHYLSAMASIRQSQEEPEDLRPEIRIAQELRRIGDEFNETYTRRVFANDYREAEDHPQMVILQLLRFIFRLVWRRH
modifications: Alexa 568-maleimide on the single cysteine at 41

Assays:
mCerulean3-Bcl-XL = biological target: T1, mCerulean3-Bcl-XL (human, UniProt Q07817-1 1-233); assay: FRET or BRET; FLIM-FRET in live MCF-7 cells: mCer3-Bcl-XL or mCer3-Bcl-2 stably expressed (donor), Venus-BH3 protein transiently expressed (acceptor); binding curves of FLIM-FRET efficiency against the Venus:mCer3 intensity ratio, 25 C; untreated, DMSO, 20 uM ABT-263 (18-24 h) or 1.25-20 uM A-1155463, A-1331852, ABT-263; R values interpolated at ratio 0.5 (Bcl-XL) or 0.25 (Bcl-2), ^VBad4E signal subtracted; settings: partners not purified
T1 construct: Bcl-XL, human; GGS linker between mCerulean3 and Bcl-XL; also called ^CBcl-XL; ^cBcl-XL; source: MCF-7 and BMK-DKO, stably transfected clones, in live cells; not shown: mCerulean3, N-terminal, kept
T1 sequence (Q07817 whole entry): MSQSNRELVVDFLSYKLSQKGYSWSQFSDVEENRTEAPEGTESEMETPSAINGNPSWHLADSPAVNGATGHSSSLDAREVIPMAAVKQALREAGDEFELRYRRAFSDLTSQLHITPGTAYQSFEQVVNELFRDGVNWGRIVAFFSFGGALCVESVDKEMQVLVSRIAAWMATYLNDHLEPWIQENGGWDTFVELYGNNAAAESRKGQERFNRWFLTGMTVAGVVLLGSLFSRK

mCerulean3-Bcl-2 = biological target: T2, mCerulean3-Bcl-2 (human, UniProt P10415 1-239); assay: as above; settings: partners not purified
T2 construct: Bcl-2, human; GGS linker between mCerulean3 and Bcl-2; also called ^CBcl-2; ^cBcl-2; source: MCF-7, stably transfected clone, in live cells; not shown: mCerulean3, N-terminal, kept
T2 sequence (P10415 whole entry): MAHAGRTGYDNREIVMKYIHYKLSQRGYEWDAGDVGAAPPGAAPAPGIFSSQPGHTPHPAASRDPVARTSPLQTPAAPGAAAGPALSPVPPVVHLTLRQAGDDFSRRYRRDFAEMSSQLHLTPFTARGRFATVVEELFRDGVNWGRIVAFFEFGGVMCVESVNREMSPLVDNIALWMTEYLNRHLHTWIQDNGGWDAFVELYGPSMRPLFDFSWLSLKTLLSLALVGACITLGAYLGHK

[1] = biological target: T3, Bcl-XL single-cysteine mutant 152C, Alexa647-labelled (human, UniProt Q07817-1 1-233, Alexa 647-maleimide on the single cysteine at 152); assay: FRET or BRET; 4 nM Alexa568-labelled BimL or BimL-dCTS with increasing Alexa647-labelled Bcl-XL in samples containing mouse liver mitochondria; apparent Kd; settings: both partners purified
T3 sequence (Q07817 other isoform, or with tags, fused parts or gaps mutant): as the sequence (Q07817 whole entry) above, with V152C counted along it

[2] = biological target: T3, Bcl-XL single-cysteine mutant 152C, …; assay: FRET or BRET; purified Alexa568-labelled BH3 protein (10 nM) and Alexa647-labelled Bcl-XL (40 nM) with liposomes, ABT-263 titrated in; 37 C, 1 h; relative displacements, not absolute affinity; settings: both partners purified
[3] = biological target: T3, Bcl-XL single-cysteine mutant 152C, …; assay: FRET or BRET; purified proteins with liposomes, protein binding (FRET) and liposome permeabilization measured at the same time, ABT-263 titrated; settings: both partners purified

Row | Binder | R_(ABT-263), % of FRET signal left with 20 uM ABT-263 (mCerulean3-Bcl-XL) [%] | R_(ABT-263), % of FRET signal left with 20 uM ABT-263 (mCerulean3-Bcl-2) [%] | Kd [1] [nM] | IC50 of ABT-263 for displacing the pair [2] [nM] | IC50 of ABT-263 for FRET of the pair [3] [nM]
1 | B1 | 86.3 | 83.1 | – | – | –
2 | B2 | 51 | 63 | – | – | –
3 | B3 | 88.8 | 80.7 | – | – | –
4 | B4 | 70.1 | 64.8 | – | – | –
5 | B5 | 40 | 36.9 | – | – | –
6 | B6 | 41.9 | 51 | – | – | –
7 | B7 | 63.9 | 73.3 | – | – | –
8 | B8 | 88.7 | 65.3 | – | – | –
9 | B9 | – | – | 35 ± 5 | ~200 | –
10 | B10 | – | – | 3 ± 1 | > 4000 | > 700
